Source: patent US20080032927A1 (published 2008)
Where two headings read alike, the source gives them in different places. Each block holds one molecule with its values, some of them ahead of it.

Key:
[1] = molecular target: LEF1/TCF-transcriptional factors; assay: cell-based or functional assay
[2] = molecular target: LEF1/TCF-transcriptional factors; assay: cell-based or functional assay; remark: listed apart in the source
TCF4 = molecular target: T1, TCF4 (UniProt Q9NQB0 1-619, limits assumed); assay: co-immunoprecipitation with anti-TCF4 beads
T1 construct: Endogenous protein of HCT116 cells; also called endogenous TCF4
T1 sequence (Q9NQB0 whole entry): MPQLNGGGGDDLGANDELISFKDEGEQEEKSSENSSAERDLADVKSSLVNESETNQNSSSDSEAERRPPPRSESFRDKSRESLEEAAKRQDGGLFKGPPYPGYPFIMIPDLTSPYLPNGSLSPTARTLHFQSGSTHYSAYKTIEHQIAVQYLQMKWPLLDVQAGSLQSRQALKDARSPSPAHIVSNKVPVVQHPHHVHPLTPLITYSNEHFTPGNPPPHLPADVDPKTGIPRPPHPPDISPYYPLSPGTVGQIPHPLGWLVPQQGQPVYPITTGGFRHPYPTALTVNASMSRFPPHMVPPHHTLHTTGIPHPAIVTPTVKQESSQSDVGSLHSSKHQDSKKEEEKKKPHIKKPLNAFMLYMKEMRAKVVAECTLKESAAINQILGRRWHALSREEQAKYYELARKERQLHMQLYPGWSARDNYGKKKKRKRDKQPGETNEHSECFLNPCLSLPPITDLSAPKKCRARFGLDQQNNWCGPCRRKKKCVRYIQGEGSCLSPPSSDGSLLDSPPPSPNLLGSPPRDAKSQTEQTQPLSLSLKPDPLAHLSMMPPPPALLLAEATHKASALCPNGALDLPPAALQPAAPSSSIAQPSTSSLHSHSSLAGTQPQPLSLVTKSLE
Method: Co-immunoprecipitation-The affinity-protein G beads were prepared by mixing 20 μl of protein G plus-Agarose beads (Santa Cruz Biotechnology) with 1 μg of corresponding antibody. A total of 2×10⁶ of cells were lysed with 1× cells lysis buffer (Promega) containing 1× protease inhibitor reagent (Roche), incubated on ice for 30 minutes, sonicated briefly, and centrifuged at 12,000 g for 5 minutes at 4° C. The supernatants were further cleaned with 20 μl of untreated protein G plus-Agarose beads and 2 μg of pre-immune serum for 2 hours at 4° C. The supernatants were then mixed with 20 μl of prelabeled protein G plus-Agarose beads at 4° C. overnight. The beads were washed four times with PBS plus 0.2% NP40.
Xom binds to LEF1/TCF factors in vivo and in vitro-Binding of LEF1/TCFs to the promoter of TOPflash is required for the activation of the reporter construct; thus, the finding that expression of Xom activates TOPflash but not FOPflash raised the possibility that Xom activates the TOPflash reporter through interaction with LEF1/TCFs. This hypothesis was tested by determining whether Xom physically interacts with LEF1/TCFs. Co-immunoprecipitation experiments was carried out in HCT116 cells transiently transfected with mye-Xom. […] The in vivo association between Xom and TCF4 appears to be strong and could not be dissociated with 300 mM NaCl and 0.1% NP40. […]

- TOPflash reporter in 293T cells [1]: 10 fold
- TOPflash reporter transcription in Xenopus embryos [1]: 7 fold
Molecule: Xom

- TOPflash reporter in 293T cells [2]: 10 fold
B1: XomCD85 (protein)
chain: MTKAFSSVEWLAQSSRRSHREQPSKVDQRYSPYPSPSLPSWNSDVSPSSWNSQLSPDPDSAQVSPCPASAQVSPYSSDSEISLYSHEEEASFYGMDLNTSSSPGDNGLLHSEMVSVPDNIPRASSDEDAAKSAYSTSTDSGYESETSCSSSTAPEGDAISLSPNDTSDEEGKMGRRLRTAFTSDQISTLEKTFQKHRYLGASERQKLAAKLQLSEVQIKTWFQNRRMKYKREIQDGRPDSY

- binding result (TCF4): no binding
B2: XomID110 (other)
chain: MTKAFSSVEWLAQSSRRSHREQPSKVDQRYSPYPSPSLPSWNSDVSPSSWNSQLSPDPDSAQVSPCPASAQVSPYSSDSEISLYSHEEEASFYGMDLNTSSSPGDNGLLHSEMVSVPDNIPRASSDEDAAYHPAQFFGVYGYAQQPTPVFQHAVQHPYPGYNPLMETLPGTMPYTMHPPAMDSMTPFNSQPFQMLYLPQQHLGQPLTYQEERPFVR
notes: Internal deletion mutant of Xom lacking aa 131-240, which includes the homeodomain; also called XomID110 (fusion of aa 1-130 and aa 241-326)
